The target of experiment [1] is RAS proteins (endogenous, in cells). The experiment in a line: cell-based or functional assay.
In experiment [2] the target is diphtheria toxin receptor (heparin-binding epidermal growth factor-like growth factor, HB-EGF) on Vero cells (UniProt Q09118). Put plainly: cell-based or functional assay.

Consider RRSP-APD-Δdta-dtB (enzyme), for which, in experiment [1], the EC50 of loss of RAS proteins in HeLa cells (immunoblot) is 1 pM and the potency of RAS loss in HeLa cells against RRSP-dta-dtB stood at 300 fold.

The substance RRSP-dta-dtB (enzyme) showed an EC50 of loss of total RAS proteins in HeLa cells after 24 h (immunoblot with anti-RAS antibody) in experiment [1] of 250 pM.

Turning to dtA-eGFP-dta-dtB, in experiment [2], the EC50 of inhibition of protein synthesis (3H-leucine incorporation) in Vero cells, in the presence of 1 nM nontoxic DT stood at 215 pM and the EC50 of inhibition of protein synthesis (3H-leucine incorporation) in Vero cells, without competitor worked out at 3.8 pM.

In experiment [1], RRSP-Δdta-dtB (enzyme) displayed an EC50 of loss of RAS proteins in HeLa cells (immunoblot) of 1 pM and a potency of RAS loss in HeLa cells against RRSP-dta-dtB of 300 fold.

The values are drawn from patent publication US20200255483A1.
